# Results: patent US7422862B2, “Methods for identifying modulators of apoptosis” (The Burnham Institute, priority 2001, dated 2008)
# No end group written: not given here.
# Assays:
# Bcl-XL = Bcl-XL (Homo sapiens, UniProt Q07817); assay: Fluorescence polarization assay, Bcl-XL specificity control; format: binding
# endogenous Bax protein = assay: Subcellular fractionation and immunoblot of endogenous Bax after STS; format: cell-based; conditions: Cos7 cells, untagged peptides, STS
# Protocol: (A-B) Humanin peptide prevents STS-induced Bax translocation in vivo. Cos-7 cells were first transfected with GFP-Bax plasmids. After 24 hrs, untagged wild-type or C8P mutant Humanin peptides were introduced into cells using ChariotTM reagent, and 2 h later cells were treated with 1 μM STS. After 4 h, the percentage of cells with translocated Bax was determined (mean±SD; n=3) by confocal microscopy (A) and representative photomicrographs (B). (C) Wild-type or C8P mutant Humanin peptides were introduced into Cos7 cells using ChariotTM reagent. Cytosolic (C) and mitochondria-containing (M) fractions were isolated by differential centrifugation 23 and analyzed by immunoblotting using anti-Bax (top), Hsp60 (middle) (mitochondrial marker), or Tubulin (bottom) (cytosol marker) antibodies. (D) HN or mutant control double-strand siRNAs were transfected into SF268 cells. After 48 h, cells were cultured without (Control) or with 0.1 uM STS. After 24 hr, cells were fractionated and analyzed by immunoblotting as above. […] After 3 h at 30° C., mitochondria were centrifuged and the resulting pellets (P) and supernatants (S) were analyzed by immunoblotting using anti-Cytochrome c (top), Hsp60 (middle), and Bax (bottom) antibodies. […]
# These findings were also confirmed by subcellular fractionation, where cytosol and mitochondria-enriched heavy membrane preparations were prepared from Cos7 cells transduced with untagged Humanin or Humanin(C8P) peptides, and the relative amounts of endogenous Bax protein in these two fractions were measured by immunoblot analysis of samples normalized for cell-equivalents. […] Differences in the relative potency of Humanin at blocking Bax translocation as measured by microscopy (FIG. 7A) versus cell fractionation methods (FIG. 7C) can be explained by differences in the sensitivity of the assays, or could possibly indicate that even in cells where some Bax translocation has occurred, less of the total Bax protein associated with mitochondria. […]
# Bax = assay: Bax-induced lethality in yeast; format: cell-based, S. cerevisiae; conditions: TAD-fusion polypeptide, galactose-induced Bax
# purified recombinant Bax [1] = biological target: T1, purified recombinant Bax (Homo sapiens, UniProt Q07812); assay: Isolated mitochondria: Bax association and cytochrome c release assay; format: biochemical; conditions: 100 μM peptide preincubated with Bax, HCT116 mitochondria
# T1 sequence (Q07812 whole entry): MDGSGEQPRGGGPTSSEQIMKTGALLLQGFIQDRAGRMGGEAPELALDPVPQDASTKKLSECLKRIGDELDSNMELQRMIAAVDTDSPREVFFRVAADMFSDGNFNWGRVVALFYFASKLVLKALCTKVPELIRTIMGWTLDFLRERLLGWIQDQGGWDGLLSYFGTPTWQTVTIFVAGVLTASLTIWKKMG
# Protocol: (A-B) Humanin peptide prevents STS-induced Bax translocation in vivo. Cos-7 cells were first transfected with GFP-Bax plasmids. After 24 hrs, untagged wild-type or C8P mutant Humanin peptides were introduced into cells using ChariotTM reagent, and 2 h later cells were treated with 1 μM STS. After 4 h, the percentage of cells with translocated Bax was determined (mean±SD; n=3) by confocal microscopy (A) and representative photomicrographs (B). (C) Wild-type or C8P mutant Humanin peptides were introduced into Cos7 cells using ChariotTM reagent. Cytosolic (C) and mitochondria-containing (M) fractions were isolated by differential centrifugation 23 and analyzed by immunoblotting using anti-Bax (top), Hsp60 (middle) (mitochondrial marker), or Tubulin (bottom) (cytosol marker) antibodies. (D) HN or mutant control double-strand siRNAs were transfected into SF268 cells. After 48 h, cells were cultured without (Control) or with 0.1 uM STS. After 24 hr, cells were fractionated and analyzed by immunoblotting as above. (E) Isolated mitochondria were mixed with 400 ng Bax protein, with or without preincubating Bax with 100 uM Humanin or Humanin(C8P) peptides for 10 min. After 3 h at 30° C., mitochondria were centrifuged and the resulting pellets (P) and supernatants (S) were analyzed by immunoblotting using anti-Cytochrome c (top), Hsp60 (middle), and Bax (bottom) antibodies. (F) HN peptide enforces the interaction of Bax TM domain with Bax.TM. Lysates from HEK293T cells expressing Flag-Bax.TM were pretreated with or without Humanin or Humanin(C8P) peptides. Lysates were then mixed in vitro with lysates of HEK293T cells expressing GFP-TM(Bax). Immunoprecipitations were performed with anti-Flag antibody, analyzing lysates and immunoprecipitates (IP) by immunoblotting using monoclonal anti-GFP antibody.
# To determine whether Humanin can act directly on Bax, the effects of Humanin on isolated mitochondria were tested. Addition of recombinant purified Bax protein to mitochondria in vitro induces cytochrome c release (Jurgensmeier et al., Proc. Natl. Acad. Sci. USA 95:4997-5002 (1998)). […] Therefore Humanin can directly suppress Bax targeting to mitochondria, without requirement for intact cells.
# Cytochrome c release assays were performed as follows. Mitochondria were isolated from HCT116 cells by differential centrifugation as described above. Purified recombinant human Bax protein (400 ng for each sample) was pre-incubated with or without 100 μM synthetic Humanin peptide or mutant Humanin (C8P) peptide for 10 min at 4° C. The untreated or peptide pre-treated Baxprotein samples were then mixed with equal amount of HCT116 mitochondria (in a volume of 40 μl) at 30° C. for 3 hours. […]
# GFP-Bax = biological target: T2, GFP-Bax (Homo sapiens, UniProt Q07812); assay: STS-induced GFP-Bax translocation to mitochondria in Cos7 cells (confocal microscopy); format: cell-based; conditions: peptide transduced with Chariot, 1 μM STS
# T2 construct: expressed in transfected cells; host or cells: Cos-7
# T2 sequence (Q07812 whole entry): as above
# Protocol: (§1) (A-B) Humanin peptide prevents STS-induced Bax translocation in vivo. Cos-7 cells were first transfected with GFP-Bax plasmids. After 24 hrs, untagged wild-type or C8P mutant Humanin peptides were introduced into cells using ChariotTM reagent, and 2 h later cells were treated with 1 μM STS. After 4 h, the percentage of cells with translocated Bax was determined (mean±SD; n=3) by confocal microscopy (A) and representative photomicrographs (B). (C) Wild-type or C8P mutant Humanin peptides were introduced into Cos7 cells using ChariotTM reagent. Cytosolic (C) and mitochondria-containing (M) fractions were isolated by differential centrifugation 23 and analyzed by immunoblotting using anti-Bax (top), Hsp60 (middle) (mitochondrial marker), or Tubulin (bottom) (cytosol marker) antibodies. (D) HN or mutant control double-strand siRNAs were transfected into SF268 cells. After 48 h, cells were cultured without (Control) or with 0.1 uM STS. After 24 hr, cells were fractionated and analyzed by immunoblotting as above. (E) Isolated mitochondria were mixed with 400 ng Bax protein, with or without preincubating Bax with 100 uM Humanin or Humanin(C8P) peptides for 10 min. After 3 h at 30° C., mitochondria were centrifuged and the resulting pellets (P) and supernatants (S) were analyzed by immunoblotting using anti-Cytochrome c (top), Hsp60 (middle), and Bax (bottom) antibodies. […]
# BaxΔTM = biological target: T3, BaxΔTM (Homo sapiens, UniProt Q07812); assay: Co-immunoprecipitation of BaxΔTM with GFP-TM(Bax); format: binding; conditions: lysates pre-incubated with peptide
# T3 construct: a C-terminally truncated Bax protein (residues 1-169) (BaxΔTM); expressed in transfected cells; host or cells: HEK293T (lysates mixed in vitro)
# T3 sequence (Q07812 1-169, stated change not applied): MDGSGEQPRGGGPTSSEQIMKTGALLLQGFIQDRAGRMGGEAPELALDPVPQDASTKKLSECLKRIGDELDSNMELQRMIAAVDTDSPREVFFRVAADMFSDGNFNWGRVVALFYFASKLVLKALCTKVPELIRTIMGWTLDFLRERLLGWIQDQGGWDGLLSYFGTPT
# T3 sequence (Q07812 170-192 partner limits assumed): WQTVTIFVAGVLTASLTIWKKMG
# Protocol: as §1
# purified recombinant Bax [2] = biological target: T1, purified recombinant Bax; assay: Fluorescence polarization assay (FPA) of rhodamine-labelled peptide binding to Bax; parameters: full-length Bax protein was produced in bacteria and purified; made in house; host or cells: E. coli BL21; conditions: rhodamine-labelled control peptides
# Protocol: (C) The affinity (Kd) of Bax/HN interaction was measured by fluorescence polarization assay, using various concentrations of purified recombinant Bax and 40 nM rhodamine-conjugated HN peptide. Control peptide from CD40 is also shown (mean +Std Dev; n=3).
# In this example, the in vitro binding assay is a fluorescence polarization assay (FPA). For this experiment, full-length Bax protein was produced in bacteria and purified. Various concentrations of Bax protein were incubated with 40 nM of rhodamine-conjugated synthetic purified Humanin peptide. The extent of peptide binding was then monitored by measuring polarization of monochromatic light passed through the sample, where peptide binding to the bulkier protein slows the rate of peptide tumbling in solution, enhancing the polarization effect.
# Fluorescence Polarization Assays were performed as follows. Recombinant Bax protein was isolated from E. coli BL21 harboring pTYB1-Bax essentially as described (Suzuki et al., Cell 103:645-654 (2000)). For fluorescence polarization assays (FPA), various concentrations of Bax protein were incubated with 40 nM of rhodamine-conjugated synthetic purified Humanin peptide dissolved in water for 30 minutes in dark. Fluorescence polarization was measured using an AnalystTM AD Assay Detection System (LJL Biosystem, Sunnyvale, Calif.).
# Chain of Bcl-XL (Q07817 whole entry, species assumed): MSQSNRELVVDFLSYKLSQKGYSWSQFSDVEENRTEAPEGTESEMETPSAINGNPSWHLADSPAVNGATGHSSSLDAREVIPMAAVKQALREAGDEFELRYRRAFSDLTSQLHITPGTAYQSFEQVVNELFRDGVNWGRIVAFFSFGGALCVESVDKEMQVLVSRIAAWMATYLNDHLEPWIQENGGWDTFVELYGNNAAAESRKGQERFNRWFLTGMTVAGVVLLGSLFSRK
molecule,measurement,setting,value
CC[C@H](C)[C@H](NC(=O)[C@H](CCC(=O)O)NC(=O)[C@H](CO)NC(=O)[C@@H](NC(=O)[C@H](CC(C)C)NC(=O)[C@H](CC(C)C)NC(=O)[C@H](CC(C)C)NC(=O)[C@H](CC(C)C)NC(=O)[C@H](CS)NC(=O)[C@H](CO)NC(=O)[C@H](Cc1ccccc1)NC(=O)CNC(=O)[C@H](CCCNC(=N)N)NC(=O)[C@@H]1CCCN1C(=O)[C@H](C)NC(=O)[C@H](CCSC)NC(=O)CCCCCNC(=O)c1ccccc1-c1c2ccc(=[N+](CC)CC)cc-2oc2cc(N(CC)CC)ccc12)[C@@H](C)O)C(=O)N[C@@H](CC(=O)O)C(=O)N[C@@H](CC(C)C)C(=O)N1CCC[C@H]1C(=O)N[C@H](C(=O)N[C@@H](CCCCN)C(=O)N[C@@H](CCCNC(=N)N)C(=O)N[C@@H](CCCNC(=N)N)C(=O)N[C@@H](C)C(N)=O)C(C)C [rhodamine-HN],binding to Bcl-XL in fluorescence polarization assay,Bcl-XL,did not bind
"Humanin(C8P): synthetic Humanin peptide (or TAD-fusion in yeast) with C8P mutation, non-Bax-binding (MAPRGFSPLLLLTSEIDLPVKRRA; UniProt Q8IVG9 1-24, looked up, variant C8P)",Bax translocation by subcellular fractionation,endogenous Bax protein,no effect
same,rescue of yeast from Bax-induced lethality,Bax,did not rescue
same,Bax association with mitochondria,purified recombinant Bax [1],did not interfere
same,cytochrome c release,purified recombinant Bax [1],did not interfere
same,suppression of GFP-Bax translocation,GFP-Bax,not
same,interaction of BaxΔTM with GFP-TM,BaxΔTM,did not promote
"rhodamine-CD40: rhodamine-labelled control peptide from CD40 (residue 250P to 266G) (PVQETLHGCQPVTQEDG; also: rhodamine label; UniProt P25942 250-266, looked up, fragment)",interaction with Bax in fluorescence polarization assay,purified recombinant Bax [2],did not display interactions
